Measured values reported in PMC6445466.

Biological target: BAD16-C (residues 204-352, B. afzelii strain PGau) (Borrelia afzelii strain PGau)
Experiment: SPR; Biacore T200, 25°C; borrelial protein immobilised by amine coupling; C1r as analyte, single-cycle kinetics, five-fold dilution series 1.6 to 1000 nM; HBS-T with 5 mM CaCl2; 1:1 kinetic fit; triplicate

B1: human C1r, full-length enzyme (enzyme)
chain: SIPIPQKLFGEVTSPLFPKPYPNNFETTTVITVPTGYRVKLVFQQFDLEPSEGCFYDYVKISADKKSLGRFCGQLGSPLGNPPGKKEFMSQGNKMLLTFHTDFSNEENGTIMFYKGFLAYYQAVDLDECASRSKSGEEDPQPQCQHLCHNYVGGYFCSCRPGYELQEDTHSCQAECSSELYTEASGYISSLEYPRSYPPDLRCNYSIRVERGLTLHLKFLEPFDIDDHQQVHCPYDQLQIYANGKNIGEFCGKQRPPDLDTSSNAVDLLFFTDESGDSRGWKLRYTTEIIKCPQPKTLDEFTIIQNLQPQYQFRDYFIATCKQGYQLIEGNQVLHSFTAVCQDDGTWHRAMPRCKIKDCGQPRNLPNGDFRYTTTMGVNTYKARIQYYCHEPYYKMQTRAGSRESEQGVYTCTAQGIWKNEQKGEKIPRCLPVCGKPVNPVEQRQRIIGGQKAKMGNFPWQVFTNIHGRGGGALLGDRWILTAAHTLYPKEHEAQSNASLDVFLGHTNVEELMKLGNHPIRRVSVHPDYRQDESYNFEGDIALLELENSVTLGPNLLPICLPDNDTFYDLGLMGYVSGFGVMEEKIAHDLRFVRLPVANPQACENWLRGKNRMDVFSQNMFCAGHPSLKQDACQGDSGGVFAVRDPNTDRWVATGIVSWGIGCSRGYGFYTKVLNYVDWIKKEMEEED
B1 was tested, and the Kd was 2.2 nM, the koff was 4.3e-05 s⁻¹ and the kon was 19000 M⁻¹ s⁻¹.
